Reference: patent US20250276090A1, “Methods and Compositions for Genetically Modifying a Cell” (Intellia Therapeutics, Inc., priority 2022, published 2025)
Strand notation (5' to 3'): a small letter for the sugar, then the base; units joined by * are phosphorothioate-linked, units joined directly phosphodiester-linked; [ ] holds rarer units or linkages, { } end groups; capitals alone tell only the bases. m = 2'-O-methyl; r = 2'-OH (RNA)

Experiments:
Assay type in all cases: cell-based, human
AAVS1 = assay: GFP insertion at AAVS1 in T cells with SpyCas9 RNP and gapped AAV templates, flow cytometry (Example 6); conditions: day 7 post-editing
Experimental: AAVS1 guide RNAs were designed and screened to identify insertion SpyCas9 guides using a series of gapped AAV GFP templates (A, B, C, D, OG) each designed for a subset of the guide RNAs. Insertion efficacy in T cells was examined by assessing GFP expression by flow cytometry. The percentage of T cells positive for green fluorescent protein (“% GFP+”) was assayed by flow cytometry, following AAVS1 editing by mRNA and AAV delivery.
Healthy human donor apheresis was obtained commercially (Hemacare) from two donors (#110042863 and #110040377) and cells were washed and resuspended in MACS Buffer containing 2 mM EDTA and 0.5% Fetal Bovine Serum (FBS) in PBS. Cells were washed twice by centrifugation followed by CD3 negative selection using Easy Sep Human T Cell Isolation Kit (Stemcell, Cat. 100-0695) and separated using Easy Sep Magnets (Stemcell, Cat.18000). T cells were aliquoted and cryopreserved for future use in Cryostor® CS10 (StemCell Technologies Cat. 07930).
AAVS1 guide RNAs were assessed for insertion efficacy in T cells by assessing GFP expression by flow cytometry. The percentage of T cells positive for green fluorescent protein (“% GFP+”) was assayed by flow cytometry, following AAVS1 editing by mRNA and AAV delivery.
AAVS1 targeting sgRNAs corresponding to the flanking homology regions of Gap Templates A, B, C, D, & OG (SEQ ID NOs: 299-303) were removed from their storage plates and denatured for 2 minutes at 95° C. before cooling at room temperature for 10 minutes. RNP mixture of 20 μM sgRNA and 10 μM Cas9-NLS protein (SEQ ID NO: 296) was prepared and incubated at 25° C. for 10 minutes. 2.5 μL of RNP mixture was combined with 250,000 cells in […] P3 electroporation Buffer (Lonza). 22 μL of RNP/cell mix was transferred to the corresponding wells of a Lonza shuttle 96-well electroporation plate. Cells were electroporated in duplicate with the manufacturer's pulse code. T cell media described above without any cytokines was added to the cells immediately post electroporation. T cells were rested for 10 minutes at 37° C. Gap Template AAVs were prepared in 48 well plates (Corning, Cat.353078)) with T cell media described above containing 2× cytokines, 400 U/mL recombinant human interleukin-2 (Peprotech, Cat. 200-02), 10 ng/ml recombinant human interleukin 7 (Peprotech, Cat. 200-07), and 10 ng/ml recombinant human interleukin 15 (Peprotech, Cat. 200-15) cytokines. The multiplicity of infection (MOI) of AAVs was 3×10^^5. AAVs were added to the T cells within 15 minutes post electroporation and incubated for 48 hours at 37° C. AAV-6 vectors encoded AAVS1 Template A, B, C, D or OG. Two days post-electroporation, cells were split 1:2 in 48 well plates replenished with T cell media with 1× cytokines as described above. sgRNAs were tested each with AAV constructs and gapped template.
On day 7 post-editing, cells were phenotyped by flow cytometry to determine GFP expression to confirm integration of AAV at their GAP template site. Briefly, T cells were washed in FACS buffer containing 2 mM EDTA (Invitrogen, Cat.15575020) and 1% FBS in PBS followed by re-suspending in FACS buffer containing 1:10,000 dilution of DAPI (Biolegend, Cat.422801) nuclear stain. Cells were then processed on a Cytoflex flow cytometer (Beckman Coulter) and analyzed using the FlowJo software package. T cells were gated based on size, shape, viability, and GFP expression. Values that were not determined by the flow cytometer were denoted as “ND”. Table 18 and FIGS. 8A-8B show mean percentage of T cells positive for GFP expression.

TRBC1 locus = assay: NGS percent editing with SpyCas9 and Nme2 base editor, TRBC1 (Example 9); conditions: TRBC1 BE guide, Day 7
Source text: (§1) Genomic DNA was extracted using QuickExtract™ DNA Extraction Solution (Lucigen, Cat. No. QE09050) according to manufacturer's protocol.
(§2) To quantitatively determine the efficiency of editing at the target location in the genome, deep sequencing was utilized to identify the presence of insertions, deletions, and substitution introduced by gene editing. PCR primers were designed around the target site within the gene of interest (e.g., HLA-A) and the genomic area of interest was amplified. Primer sequence design was done as is standard in the field.
(§3) Additional PCR was performed according to the manufacturer's protocols (Illumina) to add chemistry for sequencing. The amplicons were sequenced on an Illumina MiSeq instrument. The reads were aligned to the human reference genome (e.g., hg38) after eliminating those having low quality scores. Reads that overlapped the target region of interest were re-aligned to the local genome sequence to improve the alignment. Then the number of wild type reads versus the number of reads which contain C-to-T mutations, C-to-A/G mutations or indels was calculated. Insertions and deletions were scored in a 20 bp region centered on the predicted Cas9 cleavage site. Indel percentage is defined as the total number of sequencing reads with one or more base inserted or deleted within the 20 bp scoring region divided by the total number of sequencing reads, including wild type. C-to-T mutations or C-to-A/G mutations were scored in a 40 bp region including 10 bp upstream and 10 bp downstream of the 20 bp sgRNA target sequence. The C-to-T editing percentage is defined as the total number of sequencing reads with either one or more C-to-T mutations within the 40 bp region divided by the total number of sequencing reads, including wild type. The percentage of C-to-A/G mutations are calculated similarly.
(§4) Isolated, cryopreserved T cells were thawed in a water bath and plated at a density of 1×10^6 cells/mL in TCAM media containing CTS OpTmizer T Cell Expansion SFM and T Cell Expansion Supplement (ThermoFisher Cat. A1048501), 1× Penicillin-Streptomycin, 1× Glutamax, 10 mM HEPES, 200 U/mL recombinant human interleukin-2 (Peprotech, Cat. 200-02), 5 ng/mL recombinant human interleukin 7 (Peprotech, Cat. 200-07), and 5 ng/mL recombinant human interleukin 15 (Peprotech, Cat. 200-15) and 2.5% human AB serum (GeminiBio, Cat. 100-512). Technical replicates were prepared using isolated T cells from multiple donors. Data shown is from a selected donor.
(§5) LNPs were generally prepared as described in Example 1. Lipid nanoparticles in this example were prepared with molar ratios of 35 Lipid A: 47.5 cholesterol: 15 DSPC: 2.5 PEG2k-DMG. LNPs were made with a lipid amine to RNA phosphate (N:P) molar ratio of about 6. LNPs were formulated with a single RNA species or coformulated with multiple RNA species as described in Table 32. LNPs were delivered to T cells in TCAM media containing ApoE3 (Peprotech, Cat. 350-02) as described in Table 32.
(§6) On Day 1 (e.g., about 24 hours post thaw) cells were harvested and activated with TransAct™ (1:100 dilution, Miltenyi Biotec). LNPs were applied at the doses listed in Table 32 on Day 3 along with 0.5 uM of Compound 1.
(§7) Beginning on Day 4, cells were split and media refreshed regularly. On Day 7, a portion of cells were harvested for sequencing analysis at TRAC, TRBC1, TRBC2 and CIITA loci. NGS analysis was performed as described in Example 1. Table 33 and FIG. 15 show mean percent editing for these cells.

CIITA locus = assay: NGS percent editing with SpyCas9 and Nme2 base editor, CIITA (Example 9); conditions: CIITA BE guide, Day 7
Source text: as §1, §2, §3, §4, §5, §6, §7

B1: G013523: AAVS1 SpyCas9 guide RNA, guide sequence SEQ ID NO: 255, chr19:55115637-55115657 (nucleic acid)
guide: mG*mG*mU*rGrArCrArCrArCrCrCrCrCrArUrUrUrCrCrGrUrUrUrUrArGrAmGmCmUmAmGmAmAmAmUmAmGmCrArArGrUrUrArArArArUrArArGrGrCrUrArGrUrCrCrGrUrUrArUrCrAmAmCmUmUmGmAmAmAmAmAmGmUmGmGmCmAmCmCmGmAmGmUmCmGmGmUmGmCmU*mU*mU*mU
B1 was tested, and the “Mean percentage of T cells positive for GFP expression” value (“Mean percentage of T cells positive” below) (AAVS1; Donor 1, Template D) was 70.50% and the “Mean percentage of T cells positive” value (AAVS1; Donor 2, Template D) was 72.05%.

B2: G028986: TRBC sgRNA for Nme2 Base Editor (nucleic acid)
guide: GUGUCCUACCAGCAAGGGGUCCUGGUUGUAGCUCCCUGAAACCGUUGCUACAAUAAGGCCGUCGAAAGAUGUGCCGCAACGCUCUGCCUUCUGGCAUCGUU
modifications: chemical modifications; listed as RNA; modified_base 1: mod_base = OTHER; note = 2'-O-methyl modified nucleotide with phosphorothioate linkage; modified_base 2: mod_base = OTHER; modified_base 3: mod_base = OTHE
notes: TRBC sgRNA for Nme2 Base Editor
B2 was tested, and the “Mean percent editing, C to A/G” value (TRBC1 locus; BE mRNA 0.5 ug/mL) was 1.0%, the “Mean percent editing, C to T” value (TRBC1 locus; BE mRNA 0.5 ug/mL) was 94.4% and the “Mean percent editing, Indels” value (TRBC1 locus; BE mRNA 0.5 ug/mL) was 0.3%. For the same molecule, the “Mean percent editing, C to A/G” value (TRBC1 locus; BE mRNA 1.0 ug/mL) was 0.9%, the “Mean percent editing, C to T” value (TRBC1 locus; BE mRNA 1.0 ug/mL) was 93.3% and the “Mean percent editing, Indels” value (TRBC1 locus; BE mRNA 1.0 ug/mL) was 1.0%.

B3: G026584 (nucleic acid)
guide: UCAAAGUACCCUACAGGAGGACCAGUUGUAGCUCCCUGAAACCGUUGCUACAAUAAGGCCGUCGAAAGAUGUGCCGCAACGCUCUGCCUUCUGGCAUCGUU
modifications: chemical modifications, further chemistry not given here
With B3 the “Mean percent editing, C to A/G” value (CIITA locus; BE mRNA 0.5 ug/mL) was 1.2%, the “Mean percent editing, C to T” value (CIITA locus; BE mRNA 0.5 ug/mL) was 91.8% and the “Mean percent editing, Indels” value (CIITA locus; BE mRNA 0.5 ug/mL) was 0.9%. For the same molecule, the “Mean percent editing, C to A/G” value (CIITA locus; BE mRNA 1.0 ug/mL) was 1.4%, the “Mean percent editing, C to T” value (CIITA locus; BE mRNA 1.0 ug/mL) was 91.6% and the “Mean percent editing, Indels” value (CIITA locus; BE mRNA 1.0 ug/mL) was 0.6%.

B4: G013543: AAVS1 SpyCas9 guide RNA, guide sequence SEQ ID NO: 257, chr19:55115755-55115775 (nucleic acid)
guide: mU*mG*mU*rCrCrCrUrArGrUrGrGrCrCrCrCrArCrUrGrGrUrUrUrUrArGrAmGmCmUmAmGmAmAmAmUmAmGmCrArArGrUrUrArArArArUrArArGrGrCrUrArGrUrCrCrGrUrUrArUrCrAmAmCmUmUmGmAmAmAmAmAmGmUmGmGmCmAmCmCmGmAmGmUmCmGmGmUmGmCmU*mU*mU*mU
For B4, the “Mean percentage of T cells positive” value (AAVS1; Donor 1, Template OG) was 65.25% and the “Mean percentage of T cells positive” value (AAVS1; Donor 2, Template OG) was 64.40%.
